Test results reported in patent CN113563475A (INST MICROBIOLOGY CAS, dated 2021).

Legend:
[1] = target: 新冠病毒S抗原 (on VSV-SARS-CoV-2 pseudovirus, wild type) (新型冠状病毒 (2019-nCoV / SARS-CoV-2), UniProt P0DTC2 14-1273); experiment: cell-based or functional assay
带有组氨酸标签的S蛋白RBD = 带有组氨酸标签的S蛋白RBD (新型冠状病毒 (2019-nCoV / SARS-CoV-2), UniProt P0DTC2 319-541)

Binder	中和滴度(半数中和浓度，NC50), 2019-nCoV假病毒, Hela-hACE2, luciferase [1]	Kd (带有组氨酸标签的S蛋白RBD)
双特异性抗体BS-mAb-1 (bispecific antibody) heavy: not shown light: DIQMTQSPLSLPVTPGEPASISCRSSQSLLDSDDGNTYLDWYLQKPGQSPQLLIYTLSYRASGVPDRFSGSGSGTDFTLKISRVEAEDVGVYYCMQRIEFPLTFGGGTKVEIKGGGGSGGGGSDIVMTQSPSFLSASVGDRVTITCRASQGISSYLAWYQQKPGKAPKLLIYAASTLQSGVPSRFSGSGSGTEFTLTISSLQPEDFATYYCQQLNSYPPYTFGQGTKLEIKRTVAAPSVFIFPPSDEQLKSGTASVVCLLNNFYPREAKVQWKVDNALQSGNSQESVTEQDSKDSTYSLSSTLTLSKADYEKHKVYACEVTHQGLSSPVTKSFNRGEC	0.119 µg/mL	
单抗B38 (antibody, V domains shown) VH: EVQLVESGGGLVQPGGSLRLSCAASGFIVSSNYMSWVRQAPGKGLEWVSVIYSGGSTYYADSVKGRFTISRHNSKNTLYLQMNSLRAEDTAVYYCAREAYGMDVWGQGTTVTVSS VL: DIVMTQSPSFLSASVGDRVTITCRASQGISSYLAWYQQKPGKAPKLLIYAASTLQSGVPSRFSGSGSGTEFTLTISSLQPEDFATYYCQQLNSYPPYTFGQGTKLEIK	0.681 µg/mL	22.5 nM
双特异性抗体BS-mAb-2 (bispecific antibody) heavy: not shown light: DIVMTQSPSFLSASVGDRVTITCRASQGISSYLAWYQQKPGKAPKLLIYAASTLQSGVPSRFSGSGSGTEFTLTISSLQPEDFATYYCQQLNSYPPYTFGQGTKLEIKRTVAAPSVFIFPPSDEQLKSGTASVVCLLNNFYPREAKVQWKVDNALQSGNSQESVTEQDSKDSTYSLSSTLTLSKADYEKHKVYACEVTHQGLSSPVTKSFNRGECS	0.048 µg/mL	
